This passage reports Kd, koff and kon results from patent publication US20210070881A1 (DENALI THERAPEUTICS, published 2021).

The chains are these.
B1: 2H8.38 (antibody, human IgG1, V domains shown)
VH: EVQLQQPGTELVRPGTSVKLSCKASGYTFTNYWMHWIKQRPGQGLEWIGMIDPSDTYTKFNQNFKGKATLTVDTSSSTAYMQLNSLTSEDSAVYYCARSGVAFPYWGQGTTVTVSS
VL: DILMTQSQKFMSTSVGDRVSVTCKASQNVGRNVAWYQQISGQSPKPLIYSASHRYSGVPDRFTGSGSGTDFTLTISNVQSEDLVEFFCQQYNSYPYTFGGGTKLEIK
notes: human IgG1/kappa; also called 2H8_HCvar2 + 2H8_LCvar7
B2: 2H8.29 (antibody, human IgG1, V domains shown)
VH: EVQLQQPGAEVVRPGTSVKLSCKASGYTFTNYWMHWVKQRPGQGLEWIGMIDPSDNYTKYNQKLKGKATLTVDTSSSTANMHVNSLTSEDSAVYFCARSGVAFPYWGQGTLVTVSA
VL: DIVMTQSQKFMSTSVGDRVSVTCKASQNVGTNVAWYQQKSGQSPKALIYSASHRYSGVPDRFTGSGSGTDFTLTISNVQSEDLAEYFCQQYNSYPYTFGGGTKLEIK
notes: human IgG1/kappa; also called 2H8_HCvar5 + 2H8_LCvar5
B3: 2H8.30 (antibody, human IgG1, V domains shown)
VH: EVQLQQSGAELVRPGTSVKLSCKASGYTFNNYWMHWVKQRPGQGLEWIGMIDPSDDDIKNNQKFKGKATLTVDTSSSTAYMQLISLTSEDSAVYYCARSGVALPYWGQGTLVTVSA
VL: DIVMTQSQKFMSTSVGDRVSVTCKASQNVGTNVAWYQQKSGQSPKALIYSASHRYSGVPDRFTGSGSGTDFTLTISNVQSEDLAEYFCQQYNSYPYTFGGGTKLEIK
notes: human IgG1/kappa; also called 2H8_HCvar6 + 2H8_LCvar5
B4: 2H8.06 (antibody, human IgG1, V domains shown)
VH: EVQLQQSGAELVRPGTSVKLSCKASGYTFNNYWMHWVKQRPGQGLEWIGMIDPSDDDIKNNQKFKGKATLTVDTSSSTAYMQLISLTSEDSAVYYCARSGVALPYWGQGTLVTVSA
VL: DIVMTQSQKFMSKSVGDTVSVTCKASQDVGRNVAWYQQKSGQSPKSLIYSASHRYSGVPDRFTGSGSGTDFTLTISNVQSEDLADYFCQQYNSYPYTFGGGTRLEIK
notes: human IgG1/kappa; also called 2H8_HCvar6 + 2H8_LC
B5: 2H8.11 (antibody, human IgG1, V domains shown)
VH: EVQLQQPGAEVVRPGTSVKLSCKASGYTFTNYWMHWVKQRPGQGLEWIGMIDPSDNYTKYNQKLKGKATLTVDTSSSTANMHVNSLTSEDSAVYFCARSGVAFPYWGQGTLVTVSA
VL: DIVMTQSQKFMSTSVGDRVSVTCKASQNVGTNVAWYQQKPGQSPKALIYSASHRYSGVPDRFTGSGSGTDFTLTISNVQSEDLAEYFCQQYNSYMYTFGGGTKLEIK
notes: human IgG1/kappa; also called 2H8_HCvar5 + 2H8_LCvar2
B6: 2H8.23 (antibody, human IgG1, V domains shown)
VH: EVQLQQPGAEVVRPGTSVKLSCKASGYTFTNYWMHWVKQRPGQGLEWIGMIDPSDNYTKYNQKLKGKATLTVDTSSSTANMHVNSLTSEDSAVYFCARSGVAFPYWGQGTLVTVSA
VL: DIVMTQSQKFMSTSVGDRVSITCKASQNVGTNVAWYQQKPGQSPKALIYSASYRYSGVPDRFTGSGSGTDFTLTISNVQSEDLAEYFCQQYNSYPYTFGGGTKLEIK
notes: human IgG1/kappa; also called 2H8_HCvar5 + 2H8_LCvar4
B7: 2H8.17 (antibody, human IgG1, V domains shown)
VH: EVQLQQPGAEVVRPGTSVKLSCKASGYTFTNYWMHWVKQRPGQGLEWIGMIDPSDNYTKYNQKLKGKATLTVDTSSSTANMHVNSLTSEDSAVYFCARSGVAFPYWGQGTLVTVSA
VL: DIQMTQSQKFMSTSIGDRVSVTCKASQNVGTNVAWYQQKPGQSPKSLIYSASHWYSGVPDRFTGSGSGTDFTLTISNVQSEDLAEYFCQQYNSYPYTFGGGTKLEIK
notes: human IgG1/kappa; also called 2H8_HCvar5 + 2H8_LCvar3

The target in this assay is T1, recombinant BACE1 (BACE1 extracellular domain, R&D Systems Cat#931-AS) (UniProt P56817 22-457).
T1 construct: extracellular domain; also called BACE1 extracellular domain protein
T1 sequence (P56817 22-457): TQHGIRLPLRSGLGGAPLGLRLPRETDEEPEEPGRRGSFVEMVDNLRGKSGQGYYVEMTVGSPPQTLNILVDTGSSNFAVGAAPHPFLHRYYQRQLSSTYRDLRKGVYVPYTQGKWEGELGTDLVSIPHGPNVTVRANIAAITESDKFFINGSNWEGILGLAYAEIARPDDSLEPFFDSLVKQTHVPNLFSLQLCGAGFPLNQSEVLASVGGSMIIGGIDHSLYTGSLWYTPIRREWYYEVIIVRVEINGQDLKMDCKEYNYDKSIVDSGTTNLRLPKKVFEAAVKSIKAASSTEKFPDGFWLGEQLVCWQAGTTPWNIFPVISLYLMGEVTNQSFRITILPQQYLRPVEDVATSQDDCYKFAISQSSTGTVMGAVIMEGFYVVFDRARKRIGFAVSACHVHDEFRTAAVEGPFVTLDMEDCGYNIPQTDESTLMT
Description: SPR Biacore. Background: Surface plasmon resonance follows binding to a sensor surface in real time, without labels.
Consider B1, for which the Kd – broadly, the free concentration of one partner at which half of the binding sites on the other are occupied at equilibrium, for simple one-to-one binding – was found to be 17.8 nM; the koff (as a rule, the first-order rate constant of dissociation) turned out to be 0.000329 s⁻¹; the on-rate (kon) (usually a measure of how fast the partners come together) came out at 18500 M⁻¹ s⁻¹.

On to B2, for which the equilibrium dissociation constant (Kd) was found to be 18.6 nM, the off-rate constant (koff) was 0.000255 s⁻¹ and the kon came to 13700 M⁻¹ s⁻¹.

As to B3, the equilibrium dissociation constant (Kd) came out at 21.2 nM, the off-rate constant (koff) is 0.000274 s⁻¹ and the kon amounted to 12900 M⁻¹ s⁻¹.

As to B4, the dissociation constant (Kd) was 16 nM, the koff was determined as 0.000264 s⁻¹ and the kon was 16500 M⁻¹ s⁻¹.

For the molecule B5, the Kd came out at 17.7 nM, the koff was 0.000235 s⁻¹ and the association rate constant (kon) is 13300 M⁻¹ s⁻¹.

For the molecule B6, the dissociation constant Kd is 79.4 nM, the koff stood at 0.00101 s⁻¹ and the kon turned out to be 12700 M⁻¹ s⁻¹.

As for B7, the dissociation constant (Kd) came out at 19 nM, the koff amounted to 0.000259 s⁻¹ and the kon was determined as 13600 M⁻¹ s⁻¹.
